In patent US20220306739A1 (Janssen / Centocor, published 2022):

Experiments:
[1] = biological target: T1, TCR with TRBC1 on Jurkat cells (human, UniProt P01850 1-176); assay: flow cytometry on TRBC1 expressing Jurkat cells
T1 construct: whole, on cells; Only the constant domain is named; also called TRBC1 expressing Jurkat cell lines; transfected Jurkat cells
T1 TCR beta (looked up): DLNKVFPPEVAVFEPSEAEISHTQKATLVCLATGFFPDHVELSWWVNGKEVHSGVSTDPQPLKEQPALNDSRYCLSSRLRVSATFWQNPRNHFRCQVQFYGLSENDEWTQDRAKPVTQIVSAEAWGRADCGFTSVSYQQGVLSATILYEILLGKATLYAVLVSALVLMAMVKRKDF
Description: Cells were washed with wash buffer (PBS+2% FBS) and the fluorescence of stained cells was measured on Novocyte flow cytometer. Cells were visualized on forward and sideward scatter and doublets were excluded. No secondary antibody control was used to establish background fluorescence and to gate on specific population. Background value was subtracted from main samples to get specific binding value.

[2] = biological target: T2, TRBC2 TCR on HPB-ALL cells (human, UniProt A0A5B9 1-178); assay: flow cytometry cell binding to HPB-ALL cells (TRBC2), signal:background ratio
T2 construct: whole, on cells; Only the constant domain is named; also called HPB-ALL cell line that endogenously expresses TRBC2 TCR
T2 TCR beta (looked up): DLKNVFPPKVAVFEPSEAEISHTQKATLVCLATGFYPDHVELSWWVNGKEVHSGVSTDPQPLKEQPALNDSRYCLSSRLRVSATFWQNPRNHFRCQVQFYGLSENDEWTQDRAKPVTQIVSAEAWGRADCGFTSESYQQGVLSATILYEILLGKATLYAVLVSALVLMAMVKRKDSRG

B1: anti-TRBC1 antibody JOVI-1 mIgG2a (TRB1B1) (antibody, V domains shown)
VH: EVRLQQSGPDLIKPGASVKMSCKASGYTFTGYVMHWVKQRPGQGLEWIGFINPYNDDIQSNERFRGKATLTSDKSSTTAYMELSSLTSEDSAVYYCARGAGYNFDGAYRFFDFWGQGTTLTVSS
VL: DVVMTQSPLSLPVSLGDQASISCRSSQRLVHSNGNTYLHWYLQKPGQSPKLLIYRVSNRFPGVPDRFSGSGSGTDFTLKISRVEAEDLGIYFCSQSTHVPYTFGGGTKLEIK
notes: Mouse IgG2a monoclonal, commercially sourced; also called mJOVI-1; mouse anti-human TRBC1 clone JOVI-1 mAb
Q: For B1, which EC50 [1] is on record?
A: Its EC50 is 1 to 2 nM.

Q: Does B1 bind [2]?
A: Result: no binding
